According to patent publication US20040147006:

Tests used:
[1] = tested on: unphosphorylated peptide E1-P2 25 (SEQ ID NO: 2)
[2] = tested on: unphosphorylated peptide T-2 13 (SEQ ID NO: 3)
[3] = tested on: phosphorylated peptide E1-P1 25 (SEQ ID NO: 18)
[4] = tested on: phosphorylated T-ag peptide of SEQ ID NO: 15 used in the ATPase assay

Substance: SV40 T-antigen (T-ag)
- ATPase of T-ag (32P-ATP hydrolysis, TLC autoradiography) [1]: blocked the degradation of ATP by T-ag
- ATPase of T-ag (32P-ATP hydrolysis, TLC autoradiography) [2]: this peptide inhibited the ATPase of T-ag
- ATPase of T-ag (32P-ATP hydrolysis, TLC autoradiography) [3]: had no effect
- ATPase of T-ag (32P-ATP hydrolysis, TLC autoradiography) [4]: the phosphorylated peptide did not modulate the ATPase of T-ag activity
